PMC8552724

Tested on: T1, AbrB (Bacillus thuringiensis (HD73?)), ORF:5acdf31f
T1 sequence: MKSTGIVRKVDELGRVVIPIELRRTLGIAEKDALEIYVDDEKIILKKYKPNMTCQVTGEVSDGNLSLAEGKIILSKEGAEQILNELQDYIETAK
Assay: EMSA

Sequence: CATCCGTTAAAGGAAGCATGAATTAGTAATGAATTTGCAATTTCGATAAAAGTTTGTAATATTTCATTTTATGGACATACTTCATCTAGATCACTTTGTAATAGAATATTTCCTTTTATATACAATTAAACCACATTTATCCTTCGTGAAATGTTTATATATTAAATAATATAAAAAAATATAGGGTGTTATAATTAATTCGAAAACGTTTACAAAAAGAATGATGGAGGGATAATT (double strand) [Psip1Ab1-S (-201 to +36)]
- binding: binds
